From patent US20240368269A1 (Memorial Sloan Kettering, published 2024)
Substitutions are numbered along the chain they refer to.

B1: N10 (antibody, V domains shown)
VH: QVQLVQSGAEVKKPGASVKVSCKASGYTFTGYYMHWVRQAPGQGLEWMGWINPHSGAPNSAQKFQVRVTMTRDTSISTAYMELSRLRSDDTAVYYCARDSSGWYGDAFDIWGQGTMVTVSS
VL: not shown
B2: E23 (antibody, V domains shown)
VH: QVQLVQSGAEVRKPGASVKVSCKASGYTFTGYYMHWVRQAPGQGLEWMGWINSYSGGANYAQKFQDRVTMTRDTSVSTASMELSRLRSDDTAVYYCARDGSGWYGSYFDFWGQGTLVTVSS
VL: DIVMTQTPLSSPVTLGQPASISCRSSQSLVHSDGNTYLSWLQQRPGQPPRLLIYKISNRFSGVPDRFSGSGAGTDFTLKISRVEAEDVGFYYCIQTTQFPLTFGGGTKVEIK
B3: L22 (antibody, V domains shown)
VH: EVQLLESGGGLVQPGGSLRLSCAASGFTFSSYAMGWVRQTPGKGLEWVSTISGRGGDTYYADSVKGRFTISRDNSKNTLYLQMNSLRAEDTAIYYCAKERGLGFDYWGQGTLVTVSS
VL: DIVMTQTPLSLPVTPGEPASISCRSSQSLLDSDDGNTYLDWYLQKPGQSPQLLIYTLSYRASGVPDRFSGSGSGTDFTLKISRVEAEDVGVYYCMQHLEFPLTFGGGTKVEIK
B4: K19 (antibody, V domains shown)
VH: QVQLVQSGAEVKKPGASLKVSCKTSGYTFNSYYMHWVRQAPGQGLEWMGINNPSGGTTSYAQKFQGRVTMTRDTSTSTVYMELSSLRSEDTAVYYCARDWGEQYGMDVWGQGTTVTVSS
VL: not shown
B5: I1 (antibody, V domains shown)
VH: EVQLVESGGGLVKPGGSLRLSCAASGFTFSNTWMSWVRQAPGKGLEWVGRIKSKSDGGTTDYAAPVKGRFTISRDDSKNTLYLQMNSLKTEDTAVYYCTQYYWNSFDYWGQGTLVTVSS
VL: not shown
B6: D8 (antibody, V domains shown)
VH: QVQLVQSGAEVKKPGASVKVSCKASGYTFTTYYMHWVRQAPGQGLEWMGIINPSGGSTSYAQKFQGRVTMTRDTSTSTVYMELSSLRSEDTAVYYCARQGHYIGNYLDYWGQGTLVTVSS
VL: not shown
B7: C22 (antibody, V domains shown)
VH: B6 VH with T31S, Q99V, G100A, H101D, Y102I, I103V, N105A, Y106T, L107F
VL: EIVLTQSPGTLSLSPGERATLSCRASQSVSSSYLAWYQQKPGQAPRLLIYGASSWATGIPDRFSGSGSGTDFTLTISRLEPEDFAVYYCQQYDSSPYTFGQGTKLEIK
B8: L12 (antibody, V domains shown)
VH: B6 VH with T31S, T58R, G100L, H101E, Y102L, I103L, Y106A, L107F, Y109I, L115M
VL: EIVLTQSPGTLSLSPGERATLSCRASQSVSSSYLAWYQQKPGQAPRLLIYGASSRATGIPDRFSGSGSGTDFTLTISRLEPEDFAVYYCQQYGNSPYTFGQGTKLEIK
B9: J23 (antibody, V domains shown)
VH: B6 VH with T31S, P53Y, T58K, A92G, H101R, I103S, N105S
VL: not shown
B10: M11 (antibody, V domains shown)
VH: QVQLVQSGAEVKKPGASVKVSCKASGYTFTSYYIHWVRQAPGQGLEWMGIINPSGGSKSYAQKFQGRVTMTRDTSTGTVYMELSSLRSEDTAVYYCAGQLELLGNAFDIWGQGTMVTVSS
VL: not shown
B11: G3 (antibody, V domains shown)
VH: QVQLQESGPGLVKPSETLFLTCTVSGGSISSYYWTWIRQPAGKGLEWIGRIYTSGSTNYNPSLKSRVTMSVDTSKNQFSLKLSSVTAADTAVYYCAREDWESWTFDIWGQGTMVTVSS
VL: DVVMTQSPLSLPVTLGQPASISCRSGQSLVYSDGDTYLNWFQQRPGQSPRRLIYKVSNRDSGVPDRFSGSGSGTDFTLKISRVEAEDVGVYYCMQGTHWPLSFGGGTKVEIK
B12: C8 (antibody, V domains shown)
VH: EVQLVESGGGLVQPGGSQRLSCAASGFTFSSYWMNWVRQAPGKGLEWVANIKEDGSEKYYVDSVKGRFTISRDNAKNSLYLQMNSLRAEDTAVYYCARDPGWAPFDYWGQGTLVTVSS
VL: DIQMSQSPSSLSASVGDRVTITCRASQGISNYLAWFQQKPGKAPKSLIYAASSLQSGVPSKFSGSGSGTDFTLAISSLQPEDFATYYCQQYNSFPYTFGQGTTLEIK
B13: E9 (antibody, V domains shown)
VH: QVQLVQSGAEVKKPGASVKVSCKASGYTFTSYYMHWVRQAPGQGLEWMGVINSSGGSTSYAQKFQGRVTMTRDTSTSTVYMDLSSLRSEDTAVYYCARGYCTNGVYYDEDFDYWGQGTLVTVSS
VL: B12 VL with S5T, N31H, K45T, A74T, F94Y, Y96L, Q100G, T103K, L104V
B14: J8 (antibody, V domains shown)
VH: QVHLVQSGAEVKKPGASVKVSCKASGYTFTIYYIHWVRQAPGQGLEWMGIINPSGGSTSYAQKFQGRVTMTRDTSTSTVYMELSSLRSEDTAVYYCSGNDYVDYVTTDYYGMDVWGQGTTVTVSS
VL: B12 VL with S5T, A74T, F94S, T103K
B15: O24 (antibody, V domains shown)
VH: QVQLVQSGAEVKKPGASVKVSCKASGYTFTSYYLHWVRQAPGHGLEWMAIINPSGGSTSYAQKFLGRVTMTRDTSTNTVYMELSSLRSEDTAVYYCARERQQLDYYYFAMDVWGQGTTVTVSS
VL: B12 VL with S5T, A74T, F94Y, Y96P, T103K, L104V
B16: A18 (antibody, V domains shown)
VH: QVTLRESGPALVKSTQTLTLTCTFSGFSLSTSGMCVSWIRQTPGKALEWLALIDWDDNKYYSTSLKTRLIISKDTSKNQVVLTMTNMEPVDTATYYCARIRGYSGSYDAFDIWGQGTMVTVSS
VL: DIVMTQSPLSLPVTPGEPASISCRSSQSLLHSNGYNYLDWYLQKPGQSPHILLYLGSNRAPGVPDRFSGSGSGTDFTLKISRVEAEDVGVYYCMQALQTPFTFGPGTKVDIK
B17: F9 (antibody, V domains shown)
VH: QVQLVQSGAEVKKPGASVQVSCKASGYTFTSYYMHWVRQAPGQGLEWMGIINPSGGSTSYAQKFQGRVTMTRDTSTSTVYMELSSLRSEDTAVYYCARQGGAQWLVLAFDIWGQGTMVTVSS
VL: EIVLTQSPGTLSLSPGERATLSCRASQSVSSYLAWYQQKPGQPPRLLIYGASSRATGIPDRFSGGGSGTDFTLTISRLEPEDFAVYYCQQYDSSPYTFGQGTKLEIK
B18: G16 (antibody, V domains shown)
VH: B17 VH
VL: B17 VL with P43A, D92G
B19: G23 (antibody, V domains shown)
VH: QVQLVQSGAEVKKPGASVKVSCKASGYTFTSYYIHWVRQAPGQGLEWMGIIDPSDGSTNYAQKFQGRVTMTRDTSTSTVYMELSSLRSEDTAVYYCARDREYNYYGLDVWGQGTTVTVSS
VL: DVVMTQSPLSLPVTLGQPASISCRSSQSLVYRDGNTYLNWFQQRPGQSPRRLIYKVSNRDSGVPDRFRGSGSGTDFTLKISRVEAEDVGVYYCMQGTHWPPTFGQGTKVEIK
B20: F21 (antibody, V domains shown)
VH: EVQLVESGGGLVQPGGSLRLSCAASGFTFSSYWMSWVRQAPGKGLEWVANIKQDGSEKYYVDSVKGRFTISRDNAKNSLYLQMNSLRAEDTAVYYCAREWLRFGGLVYWGQGTLVTVSS
VL: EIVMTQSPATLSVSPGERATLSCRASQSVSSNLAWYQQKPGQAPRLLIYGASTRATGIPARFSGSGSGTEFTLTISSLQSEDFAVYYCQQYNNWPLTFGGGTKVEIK
B21: B22 (antibody, V domains shown)
VH: EVQLVESGGGLVQPGGSLRLSCAASGFTFNNFWMSWVRQAPGKGLEWVANIKQDGSEKYYVDSVKGRFTISRDNAKNSLYLQMNSLRAEDTAVYYCARESYFDLWGRGTLVTVSS
VL: QAVVTQESALTTSPGETVTLTCRSSTGAVTTSNYANWVQEKPDHLFTGLIGGTNNRAPGVPARFSGSLIGDKAALTITGAQTEDEAIYFCALWYSNRWVFGGGTKLTVL
B22: P4 (antibody, V domains shown)
VH: EVQLVESGGGLVKPGGSLRLSCAASGFTFSFYSMNWVRQAPGKGLEWVSSISSSSSYIYYADSVKGRFTISRDNAKNSLYLQMNSLRAEDTAVYYCARNYDFWRGAFDIWGQGTMVTVSS
VL: not shown
B23: O18 (antibody, V domains shown)
VH: QVQLQESGPGLVKPSETLSLTCTVSGGSINSYYWSWIRQPPGKGLEWIGYIFYSGITNYNPSLKSRVTISLDTSKNQFSLKLSSVTAADTAVYYCARIGVAGFYFDYWGQGTLVTVSS
VL: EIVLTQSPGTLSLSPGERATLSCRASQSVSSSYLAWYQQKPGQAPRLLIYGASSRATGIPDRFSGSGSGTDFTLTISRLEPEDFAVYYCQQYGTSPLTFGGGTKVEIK

The binders below were run against T1, DLL3 (target in the Fab-Zap internalization assay) (UniProt Q9NYJ7 27-618, limits assumed) (assay: cell-based or functional assay).
T1 sequence (looked up): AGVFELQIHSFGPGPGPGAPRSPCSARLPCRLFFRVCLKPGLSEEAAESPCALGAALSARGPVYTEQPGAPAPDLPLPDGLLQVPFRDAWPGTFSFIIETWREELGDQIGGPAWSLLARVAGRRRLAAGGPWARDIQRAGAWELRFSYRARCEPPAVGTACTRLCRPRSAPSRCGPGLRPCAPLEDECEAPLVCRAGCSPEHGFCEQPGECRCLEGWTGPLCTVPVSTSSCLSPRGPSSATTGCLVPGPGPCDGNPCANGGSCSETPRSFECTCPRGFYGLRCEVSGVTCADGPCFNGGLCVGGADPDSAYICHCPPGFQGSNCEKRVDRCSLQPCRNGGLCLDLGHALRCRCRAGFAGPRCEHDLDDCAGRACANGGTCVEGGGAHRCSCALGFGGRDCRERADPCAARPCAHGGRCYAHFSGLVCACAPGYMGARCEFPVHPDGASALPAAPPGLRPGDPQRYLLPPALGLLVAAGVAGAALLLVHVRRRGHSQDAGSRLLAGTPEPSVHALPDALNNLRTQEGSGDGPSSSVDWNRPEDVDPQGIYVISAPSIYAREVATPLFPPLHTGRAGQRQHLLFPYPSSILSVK

First: B1
Second: B2
The “Percent Max Killing (Fab-Zap internalization assay, 10 ug/ml)” value (“Percent Max Killing” for short) of the first is lower: 74% for the first, 88.7% for the second.

Compared with B3, B4 is lower in “Percent Max Killing” value: 82% for the first, 71% for the second.

Compared with B5, B6 is lower in “Percent Max Killing” value: 97% for the first, 68% for the second.

Going from B7 to B8, the “Percent Max Killing” value falls from 69.1% to 61%.

Going from B9 to B10, the “Percent Max Killing” value rises from 59.5% to 65.2%.

First: B11
Second: B12
The “Percent Max Killing” value of the first is lower: 86% for the first, 89% for the second.

Compared with B13, B14 is higher in “Percent Max Killing” value: 61.4% for the first, 64% for the second.

First: B15
Second: B16
The “Percent Max Killing” value of the first is higher: 80.3% for the first, 67% for the second.

Compared with B17, B18 is lower in “Percent Max Killing” value: 70% for the first, 46% for the second.

First: B19
Second: B20
The “Percent Max Killing” value of the first is higher: 94% for the first, 20% for the second.

First: B21
Second: B22
The “Percent Max Killing” value of the first is lower: 61.9% for the first, 68% for the second.

B23 was tested, and the “Percent Max Killing” value was 88%.
